The labels stand for the following.
B1: Nb10 (VHH)
VHH: QVQLVESGGGLVQTGGSLRLSCAASGLTFSSYNMGWFRQAPGKEREFLGAIWSSGFTYYLDSVKGRFTISRDNAKNTVYLQMDSLKPEDTAVYYCAAARRLLTQAAAVMFNSYDYWGQGTRVTVSS
B2: Nb6 (VHH)
VHH: QLQLVETGGGLVQAGGSLRLSCAASGLIFSSYNMGWFRQAPGKEREFVGAIWSSSFTYLLDSVKGRFTISRDNAKNTVYLQMNSLKPEDTAVYYCAASRRLLTQGSAVSTTSYEYWGQGTQVTVSS
B3: Nb11 (VHH)
VHH: QVQLVETGGGLVQAGDSLRLACAHSGRTFSTYAMGWFRQAPGKEREFVAAISGSGGTTIYADSVTGRFTISRDNTKNTVYLQMNSLKPEDTAVYSCAASQYYMGSRSTENYNVWGQGTQVTVSS
B4: Nb7 (VHH)
VHH: QVQLVESGGGLVQAGGSLRLSCAASGLTFSAYNMGWFRQAPGKEREFVGAIWSSSFTYYLDSLKGRFTISRDNTKNTVYLQMNSLKPEDTAVYYCAAARRLLTQAGAVLTTSYEYWGQGTQVTVSS
B5: Nb8 (VHH)
VHH: QVQLVETGGGLVQAGGSLRLSCAASGRAFSSYGMGWFRQAPGKEREFVAAVSGSGATTIYADSVKGRFTISRDNAVNTVYLHMNDLKPDDTAVYYCAVGKYYSGSRQSHNYDYWGQGTQVTVSS
notes: also called nanobody 8; source: E. coli BL21, purified (Ni2+ beads, SEC); not shown: His6, C-terminal, kept
B6: Nb4 (VHH)
VHH: QVQLVESGGGVVQTGGSLRLSCAASGRTFSTYGMGWFRQAPGKEREFVAAISGSGGMTYYGDPVKGRFTISRDNAVNTVYLQMNNLKPEDTAVYICAVGAYYSGGSRAQNYEYWGQGTQVTVSS
notes: also called nanobody 4; source: E. coli BL21, purified (Ni2+ beads, SEC); not shown: His6, C-terminal, kept
B7: Nb5 (VHH)
VHH: B6 VHH with P88A, I95V
notes: also called nanobody 5; source: E. coli BL21, purified (Ni2+ beads, SEC); not shown: His6, C-terminal, kept
B8: Nb9 (VHH)
VHH: QLQLVESGGGVVQAGGSLRLSCAASGRTFSSYGMGWFRQAPGKEREFASAISGSGGSTYYADSVKGRFTISRDNAKNTVYLQMNSLKPEDTAVYYCARSRYYSGGRSLLEYDYWGQGTQVTVSS
notes: also called nanobody 9; source: E. coli BL21, purified (Ni2+ beads, SEC); not shown: His6, C-terminal, kept
B9: Nb1 (VHH)
VHH: QVQLVESGGGLVQAGDSLRLSCAASGRTFSNYAMGWFRQAPGKEREFVAAISGGGGTTYYSDSVKGRFTISRDNAKSTVYLQMNSLKPEDTAVYFCASSTYYMPSRAADTYTYWGQGTQVTVSS
notes: also called nanobody 1; source: E. coli BL21, purified (Ni2+ beads, SEC); not shown: His6, C-terminal, kept
B10: Nb2 (VHH)
VHH: B9 VHH with V2L, S7T
notes: also called nanobody 2; source: E. coli BL21, purified (Ni2+ beads, SEC); not shown: His6, C-terminal, kept

Positions count from the first letter of the chain named.

Data on 10 molecules can be found in article PMC6698960, “Isolation and Characterization of Nanobodies against a Zinc-Transporting P-Type ATPase” (Antibodies, 2018).

T1 sequence (Q3YW59 whole entry, one chain of several): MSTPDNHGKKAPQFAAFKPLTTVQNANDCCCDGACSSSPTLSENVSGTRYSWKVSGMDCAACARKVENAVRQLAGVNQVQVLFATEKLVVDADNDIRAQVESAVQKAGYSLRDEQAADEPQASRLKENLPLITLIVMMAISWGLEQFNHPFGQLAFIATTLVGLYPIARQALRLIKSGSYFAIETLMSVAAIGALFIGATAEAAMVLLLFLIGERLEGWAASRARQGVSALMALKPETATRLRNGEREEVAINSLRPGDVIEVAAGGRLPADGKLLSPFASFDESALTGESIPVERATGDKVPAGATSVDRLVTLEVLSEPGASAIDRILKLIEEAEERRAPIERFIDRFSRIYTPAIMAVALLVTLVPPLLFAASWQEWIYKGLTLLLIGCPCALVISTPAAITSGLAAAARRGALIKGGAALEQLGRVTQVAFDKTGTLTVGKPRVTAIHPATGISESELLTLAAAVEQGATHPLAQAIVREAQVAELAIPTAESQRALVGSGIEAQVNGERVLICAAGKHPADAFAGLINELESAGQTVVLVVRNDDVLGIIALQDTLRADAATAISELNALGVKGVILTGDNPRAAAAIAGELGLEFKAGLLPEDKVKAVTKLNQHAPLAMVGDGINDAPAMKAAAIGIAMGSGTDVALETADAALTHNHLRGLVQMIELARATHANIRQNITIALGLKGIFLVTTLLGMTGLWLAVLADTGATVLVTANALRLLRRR

The first test has as its target T1, zinc-transporting PIB-ATPase ZntA from Shigella sonnei (Shigella sonnei (UniProt Q3YW59, strain …, UniProt Q3YW59)).
Experiment: not given
Details: not given
On to B1, for which the binding result is “binds”.
Regarding B2, the binding result is given as “binds”.
In the case of B3, the binding result was “binds”.
For B4, the binding result is recorded as “binds”.

The next test has as its target T1, zinc-transporting PIB-ATPase ZntA from …. Kind of test: SEC. The following applies: both partners purified.
In the case of B5, the binding result is given as “binds”.
On the same count and under the same terms, the result for B6 reads “binds”; that for B7, “binds”.
Regarding B8, the binding result is recorded as “binds”.
In the case of B9, the binding result is recorded as “binds”.
Turning to B10, the binding result is recorded as “binds”.
